Experimental data taken from patent US20180125988.

System: AC1254 (CCD1-BSRS1-AE713)
Sequence (chain, as listed by the source): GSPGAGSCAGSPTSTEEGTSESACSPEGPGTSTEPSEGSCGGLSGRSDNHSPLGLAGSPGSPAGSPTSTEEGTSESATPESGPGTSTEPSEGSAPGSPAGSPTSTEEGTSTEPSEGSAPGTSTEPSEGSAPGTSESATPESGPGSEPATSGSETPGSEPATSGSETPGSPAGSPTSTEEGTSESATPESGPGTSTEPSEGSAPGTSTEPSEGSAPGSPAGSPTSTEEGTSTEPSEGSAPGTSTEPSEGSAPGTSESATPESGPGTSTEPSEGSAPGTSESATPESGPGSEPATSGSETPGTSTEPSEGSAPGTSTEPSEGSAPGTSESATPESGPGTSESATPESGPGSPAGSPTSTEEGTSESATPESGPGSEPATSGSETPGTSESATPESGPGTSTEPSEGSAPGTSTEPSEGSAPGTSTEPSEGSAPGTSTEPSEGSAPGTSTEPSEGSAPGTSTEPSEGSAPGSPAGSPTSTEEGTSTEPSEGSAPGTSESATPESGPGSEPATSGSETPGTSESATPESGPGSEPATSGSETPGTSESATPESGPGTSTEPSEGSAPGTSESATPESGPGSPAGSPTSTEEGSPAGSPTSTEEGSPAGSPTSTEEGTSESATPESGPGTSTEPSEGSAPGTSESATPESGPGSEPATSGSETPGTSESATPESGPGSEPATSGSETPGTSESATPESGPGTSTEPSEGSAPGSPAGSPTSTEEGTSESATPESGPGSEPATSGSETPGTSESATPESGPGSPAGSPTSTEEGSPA

recombinant mouse MMP-2, sequence (chain, as listed by the source): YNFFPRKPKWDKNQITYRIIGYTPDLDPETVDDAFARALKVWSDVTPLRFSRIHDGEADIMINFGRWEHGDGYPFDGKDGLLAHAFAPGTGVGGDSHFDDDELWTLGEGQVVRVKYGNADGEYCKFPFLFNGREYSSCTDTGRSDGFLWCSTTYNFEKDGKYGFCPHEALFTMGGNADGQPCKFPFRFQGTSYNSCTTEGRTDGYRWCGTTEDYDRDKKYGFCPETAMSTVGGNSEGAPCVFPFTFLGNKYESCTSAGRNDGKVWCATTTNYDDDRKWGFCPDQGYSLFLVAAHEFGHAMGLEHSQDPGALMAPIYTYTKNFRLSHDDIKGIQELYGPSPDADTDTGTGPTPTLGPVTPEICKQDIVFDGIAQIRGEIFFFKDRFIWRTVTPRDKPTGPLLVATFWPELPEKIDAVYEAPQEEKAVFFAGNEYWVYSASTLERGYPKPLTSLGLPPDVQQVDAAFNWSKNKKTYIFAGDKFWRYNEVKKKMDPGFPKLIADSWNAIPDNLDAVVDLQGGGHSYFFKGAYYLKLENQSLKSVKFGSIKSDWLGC

Substance | proteolytic cleavage at the PCM (SDS-PAGE, C4 RP-HPLC); enzyme:substrate 1:680, 2 h, 37 C | proteolytic cleavage at the PCM (SDS-PAGE, C4 RP-HPLC); enzyme:substrate 1:12.5, 2 h, 37 C
recombinant mouse MMP-2 | all proteases tested here cleaved the construct as intended, with varying degree of catalytic efficiency | 
recombinant human u-plasminogen activator (uPA) |  | all proteases tested here cleaved the construct as intended, with varying degree of catalytic efficiency
